Measured values published in patent US12006519B2, “Polymerase mutants and use with 3′-OH unblocked reversible terminators” (Agilent Technologies, Inc., priority 2021, dated 2024).

What was measured:
Type in all cases: biochemical
[1] = system: Lightning Terminators; experiment: Sequencing-by-synthesis with Lightning Terminators (87 cycles); set-up: ARL (87 cycles) / Lead + Lag / Leading / Lagging: unit not given here
Experimental: This section generally describes how the present mutant polymerases were used for sequencing-by-synthesis, and how their performance in sequencing was measured. Sequencing was performed on a breadboard instrument, essentially as described in Hertzog D, et al., “A high-performance, low-cost approach to next-generation sequencing”, BioOptics World. 2011 Issue November/December 2011.
In this example, mutations were introduced into the DNA polymerase of SEQ ID NO: 12 (Therminator) in an attempt to improve its capability in sequencing with 3′-OH unblocked terminators. Such mutations to Thermococcus sp. 9° N DNA polymerase are disclosed in U.S. Pat. Nos. 9,273,352; 9,677,059; 9,765,309; U.S. Pat. App. Publication No. 20160032377. The following table summarizes sequencing metrics with Lightning Terminators.
As used in this example and those that follow, “Lead+Lag” refers to dephasing errors in Sequencing by Synthesis technology caused by either reading the next base signal (Lead) or reading the previous base signal (Lag) relative to current base signals. Such errors may arise because of imperfect incoporation of reversible terminators by the polymerase.
In this example, mutant polymerases were created by introducing certain mutations (D141A/E143A/A485L) which are present in Therminator. The three mutations were introduced at the equivalent positions in JDF3 (Thermococcus sp. JDF3) and Pfu (Pyrococcus furisosus) DNA polymerases. The new mutant polymerases were then evaluated for their performance in sequencing with Lightning Terminators, as described above.

[2] = system: Lightning Terminators; experiment: Plate-based assay, incorporation of Lightning Terminators by control extracts; details: control extracts, FIG. 6, FIGS. 7A-7B
Experimental: (§1) In this example, additional mutant polymerases were derived from Pfu polymerase. To generate the mutants, eighty-seven codons in the Pfu pol B gene were saturated using the QuikChange Lightning Mutagenesis kit and oligonucleotides containing “NDT” codons to create R, N, D, C, G, H, I, L, F, S, Y, and V substitutions with equal frequency. In some cases, mutants missing from NDT libraries were prepared in a separate QuikChange reaction with an equimolar mixture of mutagenic oligos encoding the remaining mutations (A, T, K, Q, E, P, […], W). Thirty-two clones were randomly selected from each QuikChange library (with the exception of T267, Y403, Y410, I475, G499 and K675 libraries which generated fewer transformants). Bacterial lysates were prepared and screened for incorporation of LTA and LTC using a plate-based assay with immobilized primer-templates. A limited number of mutants were also screened for utilization of LTG and LTU (similar trends; data not shown). After washing and UV cleavage (to minimize dye quenching effects), plates were read and fluorescent signals compared to Pfu controls. The following table identifies four mutant Pfu polymerases that served as controls, which were given the arbitrary names Pfu5, Pfu1, and Pfu2, along with Pfu10 (which is discussed above).
Selected lysates, based on screening results, were submitted for sequencing, and an amino acid identification was made based on the selections. […] As shown in Example 3, K477W benefits sequencing by increasing the fraction of full-length reads.

[3] = system: LTC; experiment: Plate-based assay with immobilized primer-templates, incorporation of LTC; details: FIG. 6
Experimental: as §1

[4] = system: Lightning Terminator-A (LTA); experiment: Plate-based single-base extension assay, incorporation of LTA
Excerpt: This example used saturation mutagenesis at positions 486 and 494 in Pfu D141A/E143A to create additional mutant polymerases. Bacterial extracts were screened in a plate-based single-base extension assay employing Lightning Terminator-A (LTA). Positive clones producing the highest fluorescent signals were sequenced to identify the amino acid replacement. […] Selected lysates, based on screening results, were submitted for sequencing, and an amino acid identification was made based on the selections.
FIG. 3 illustrates the saturation of position 486 in a Pfu polymerase. The QuikChange kit was used with degenerate NDT codon primers to create a library of Pfu A486 mutants. A NDT codon comprises an A, C, G, or T at the first position, an A, G, or T at the second position, and a T at the third position, thereby introducing variability into the primer. The 12 possible NDT codons represent 12 amino acids (Phe, Leu, Ile, Val, Tyr, His, Asn, Asp, Cys, Arg, Ser, and Gly). Heat-clarified extracts were prepared from 32 randomly selected colonies. Extracts were screened for incorporation of LTA in a microtiter plate assay employing an immobilized dsDNA substrate. […]
In this example, additional mutant polymerases were derived from Pfu polymerase. […] After washing and UV cleavage (to minimize dye quenching effects), plates were read and fluorescent signals compared to Pfu controls. […]

[5] = alternative polymerases (D141A/E143A), same protein concentrations (0.02 ug/uL in cycle 1 and 0.002 ug/uL in cycles 2-n)

Row | Molecule | Sequencing performance with Lightning Terminators (in words) [1] | % reads >85 [1, 5] | ARL (87 cycles) [1, 5] | Lead + Lag [1, 5] | Utilization of Lightning Terminators (in words) [2] | Incorporation of LTC (in words) [3] | Incorporation of Lightning Terminators (in words) ([4]; Example 5, saturation mutagenesis in Pfu D141A/E143A, bacterial extracts, LTA) | Incorporation signals compared to the Pfu A486L control (Pfu10) ([4]; Example 6, LTA and/or LTC)
1 | Pfu2: Pfu DNA polymerase with D141A/E143A/A486L/Y546H (protein, UniProt P61875 1-775, looked up, variant D141A E143A A486L Y546H) DNA polymerase: MILDVDYITEEGKPVIRLFKKENGKFKIEHDRTFRPYIYALLRDDSKIEEVKKITGERHGKIVRIVDVEKVEKKFLGKPITVWKLYLEHPQDVPTIREKVREHPAVVDIFEYDIPFAKRYLIDKGLIPMEGEEELKILAFAIATLYHEGEEFGKGPIIMISYADENEAKVITWKNIDLPYVEVVSSEREMIKRFLRIIREKDPDIIVTYNGDSFDFPYLAKRAEKLGIKLTIGRDGSEPKMQRIGDMTAVEVKGRIHFDLYHVITRTINLPTYTLEAVYEAIFGKPKEKVYADEIAKAWESGENLERVAKYSMEDAKATYELGKEFLPMEIQLSRLVGQPLWDVSRSSTGNLVEWFLLRKAYERNEVAPNKPSEEEYQRRLRESYTGGFVKEPEKGLWENIVYLDFRALYPSIIITHNVSPDTLNLEGCKNYDIAPQVGHKFCKDIPGFIPSLLGHLLEERQKIKTKMKETQDPIEKILLDYRQKLIKLLANSFYGYYGYAKARWYCKECAESVTAWGRKYIELVWKELEEKFGFKVLYIDTDGLHATIPGGESEEIKKKALEFVKYINSKLPGLLELEYEGFYKRGFFVTKKRYAVIDEEGKVITRGLEIVRRDWSEIAKETQARVLETILKHGDVEEAVRIVKEVIQKLANYEIPPEKLAIYEQITRPLHEYKAIGPHVAVAKKLAAKGVKIKPGMVIGYIVLRGDGPISNRAILAEEYDPKKHKYDAEYYIENQVLPAVLRILEGFGYRKEDLRYQKTRQVGLTSWLNIKKS | nearly identical to Therminator | 49.7% | 75.3 | 1.3 | could utilize Lightning Terminators | maximize incorporation of LTC | – | –
2 | A486R: Pfu D141A/E143A with A486R (protein, Mutant of Pyrococcus furiosus Polymerase) MILDVDYITEEGKPVIRLFKKENGKFKIEHDRTFRPYIYALLRDDSKIEEVKKITGERHGKIVRIVDVEKVEKKFLGKPITVWKLYLEHPQDVPTIREKVREHPAVVDIFEYDIPFAKRYLIDKGLIPMEGEEELKILAFAIATLYHEGEEFGKGPIIMISYADENEAKVITWKNIDLPYVEVVSSEREMIKRFLRIIREKDPDIIVTYNGDSFDFPYLAKRAEKLGIKLTIGRDGSEPKMQRIGDMTAVEVKGRIHFDLYHVITRTINLPTYTLEAVYEAIFGKPKEKVYADEIAKAWESGENLERVAKYSMEDAKATYELGKEFLPMEIQLSRLVGQPLWDVSRSSTGNLVEWFLLRKAYERNEVAPNKPSEEEYQRRLRESYTGGFVKEPEKGLWENIVYLDFRAYYPSIIITHNVSPDTLNLEGCKNYDIAPQVGHKFCKDIPGFIPSLLGHLLEERQKIKTKMKETQDPIEWILLDYRQKRIKLLANSFYGYYGYAKARWYCKECAESVTAWGRKYIELVWKELEEKFGFKVLYIDTDGLHATIPGGESEEIKKKALEFVKYINSKLPGLLELEYEGFYKRGFFVTKKRYAVIDEEGKVITRGLEIVRRDWSEIAKETQARVLETILKHGDVEEAVRIVKEVIQKLANYEIPPEKLAIYEQITRPLHEYKAIGPHVAVAKKLAAKGVKIKPGMVIGYIVLRGDGPISNRAILAEEYDPKKHKYDAEYYIENQVLPAVLRILEGFGYRKEDLRYQKTRQVGLTSWLNIKKS | – | – | – | – | – | – | improve incorporation of Lightning Terminators | superior incorporation signals
